Reference: patent US20260001928A1 (CORTERIA PHARMACEUTICALS, priority 2022, published 2026)
*1 amine or outer side, *2 acyl side, *3 side chain or, on linkers, in order; H or OH if unused. Where no end group is shown, it is not given here. Side-chain parts run from the residue outwards. [ ]: non-standard residue; d: D form. The star is where a group is joined. C16 diacid = O=C(O)CCCCCCCCCCCCCCC(=O)*; γGlu = O=C(O)[C@H](CCC(=O)[*:2])N[*:1]; NMeI = CC[C@H](C)[C@H](NC)C(=O)O; Api = NC1(C(=O)O)CCNCC1; Hexanoyl = CCCCCC(=O)*; Aib = CC(C)(N)C(=O)O

T1: CRF1R receptor (UniProt P34998 24-415, limits assumed)
T1 sequence (looked up): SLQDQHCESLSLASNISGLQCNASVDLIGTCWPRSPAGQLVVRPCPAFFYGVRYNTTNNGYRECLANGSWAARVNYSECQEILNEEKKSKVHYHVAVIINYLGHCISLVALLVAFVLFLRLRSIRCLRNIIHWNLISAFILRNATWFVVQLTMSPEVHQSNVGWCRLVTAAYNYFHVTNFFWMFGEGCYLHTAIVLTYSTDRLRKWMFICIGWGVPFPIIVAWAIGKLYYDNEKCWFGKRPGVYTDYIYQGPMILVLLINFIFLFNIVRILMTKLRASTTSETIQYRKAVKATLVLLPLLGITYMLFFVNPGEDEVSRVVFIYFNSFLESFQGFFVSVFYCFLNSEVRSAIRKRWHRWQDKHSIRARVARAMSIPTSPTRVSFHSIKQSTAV

B1: SEQ ID NO 157 (peptide)
peptide: Hexanoyl-VLSLD[dV]PIKLK([γGlu-C16 diacid])KILLEQEKQKKQREQAETN[Api]QILAQV-NH2
SMILES: CCCCCC(=O)N[C@H](C(=O)N[C@@H](CC(C)C)C(=O)N[C@@H](CO)C(=O)N[C@@H](CC(C)C)C(=O)N[C@@H](CC(=O)O)C(=O)N[C@@H](C(=O)N1CCC[C@H]1C(=O)N[C@H](C(=O)N[C@@H](CCCCN)C(=O)N[C@@H](CC(C)C)C(=O)N[C@@H](CCCCNC(=O)CC[C@H](NC(=O)CCCCCCCCCCCCCCC(=O)O)C(=O)O)C(=O)N[C@@H](CCCCN)C(=O)N[C@H](C(=O)N[C@@H](CC(C)C)C(=O)N[C@@H](CC(C)C)C(=O)N[C@@H](CCC(=O)O)C(=O)N[C@@H](CCC(N)=O)C(=O)N[C@@H](CCC(=O)O)C(=O)N[C@@H](CCCCN)C(=O)N[C@@H](CCC(N)=O)C(=O)N[C@@H](CCCCN)C(=O)N[C@@H](CCCCN)C(=O)N[C@@H](CCC(N)=O)C(=O)N[C@@H](CCCNC(=N)N)C(=O)N[C@@H](CCC(=O)O)C(=O)N[C@@H](CCC(N)=O)C(=O)N[C@@H](C)C(=O)N[C@@H](CCC(=O)O)C(=O)N[C@H](C(=O)N[C@@H](CC(N)=O)C(=O)NC1(C(=O)N[C@@H](CCC(N)=O)C(=O)N[C@H](C(=O)N[C@@H](CC(C)C)C(=O)N[C@@H](C)C(=O)N[C@@H](CCC(N)=O)C(=O)N[C@H](C(N)=O)C(C)C)[C@@H](C)CC)CCNCC1)[C@@H](C)O)[C@@H](C)CC)[C@@H](C)CC)C(C)C)C(C)C
B2: SEQ ID NO 156 (peptide)
peptide: Hexanoyl-VLSLD[dV]PIKLK([γGlu-C16 diacid])KILLEQEKQKKQREQAETN[Aib]QILAQV-NH2
SMILES: CCCCCC(=O)N[C@H](C(=O)N[C@@H](CC(C)C)C(=O)N[C@@H](CO)C(=O)N[C@@H](CC(C)C)C(=O)N[C@@H](CC(=O)O)C(=O)N[C@@H](C(=O)N1CCC[C@H]1C(=O)N[C@H](C(=O)N[C@@H](CCCCN)C(=O)N[C@@H](CC(C)C)C(=O)N[C@@H](CCCCNC(=O)CC[C@H](NC(=O)CCCCCCCCCCCCCCC(=O)O)C(=O)O)C(=O)N[C@@H](CCCCN)C(=O)N[C@H](C(=O)N[C@@H](CC(C)C)C(=O)N[C@@H](CC(C)C)C(=O)N[C@@H](CCC(=O)O)C(=O)N[C@@H](CCC(N)=O)C(=O)N[C@@H](CCC(=O)O)C(=O)N[C@@H](CCCCN)C(=O)N[C@@H](CCC(N)=O)C(=O)N[C@@H](CCCCN)C(=O)N[C@@H](CCCCN)C(=O)N[C@@H](CCC(N)=O)C(=O)N[C@@H](CCCNC(=N)N)C(=O)N[C@@H](CCC(=O)O)C(=O)N[C@@H](CCC(N)=O)C(=O)N[C@@H](C)C(=O)N[C@@H](CCC(=O)O)C(=O)N[C@H](C(=O)N[C@@H](CC(N)=O)C(=O)NC(C)(C)C(=O)N[C@@H](CCC(N)=O)C(=O)N[C@H](C(=O)N[C@@H](CC(C)C)C(=O)N[C@@H](C)C(=O)N[C@@H](CCC(N)=O)C(=O)N[C@H](C(N)=O)C(C)C)[C@@H](C)CC)[C@@H](C)O)[C@@H](C)CC)[C@@H](C)CC)C(C)C)C(C)C
B3: SEQ ID NO 152 (peptide)
peptide: Ac-IVLSLD[dV]PIKLK([γGlu-C16 diacid])KILLEQEKQKAQREQAETN[Api]QILAQV-NH2
SMILES: CC[C@H](C)[C@H](NC(C)=O)C(=O)N[C@H](C(=O)N[C@@H](CC(C)C)C(=O)N[C@@H](CO)C(=O)N[C@@H](CC(C)C)C(=O)N[C@@H](CC(=O)O)C(=O)N[C@@H](C(=O)N1CCC[C@H]1C(=O)N[C@H](C(=O)N[C@@H](CCCCN)C(=O)N[C@@H](CC(C)C)C(=O)N[C@@H](CCCCNC(=O)CC[C@H](NC(=O)CCCCCCCCCCCCCCC(=O)O)C(=O)O)C(=O)N[C@@H](CCCCN)C(=O)N[C@H](C(=O)N[C@@H](CC(C)C)C(=O)N[C@@H](CC(C)C)C(=O)N[C@@H](CCC(=O)O)C(=O)N[C@@H](CCC(N)=O)C(=O)N[C@@H](CCC(=O)O)C(=O)N[C@@H](CCCCN)C(=O)N[C@@H](CCC(N)=O)C(=O)N[C@@H](CCCCN)C(=O)N[C@@H](C)C(=O)N[C@@H](CCC(N)=O)C(=O)N[C@@H](CCCNC(=N)N)C(=O)N[C@@H](CCC(=O)O)C(=O)N[C@@H](CCC(N)=O)C(=O)N[C@@H](C)C(=O)N[C@@H](CCC(=O)O)C(=O)N[C@H](C(=O)N[C@@H](CC(N)=O)C(=O)NC1(C(=O)N[C@@H](CCC(N)=O)C(=O)N[C@H](C(=O)N[C@@H](CC(C)C)C(=O)N[C@@H](C)C(=O)N[C@@H](CCC(N)=O)C(=O)N[C@H](C(N)=O)C(C)C)[C@@H](C)CC)CCNCC1)[C@@H](C)O)[C@@H](C)CC)[C@@H](C)CC)C(C)C)C(C)C
B4: SEQ ID NO 154 (peptide)
peptide: [NMeI]VLSLD[dV]PIKLK([γGlu-C16 diacid])KILLEQEKQKAQREQAETN[Api]QILAQV-NH2
modifications: N-terminus assumed
SMILES: CC[C@H](C)[C@H](NC)C(=O)N[C@H](C(=O)N[C@@H](CC(C)C)C(=O)N[C@@H](CO)C(=O)N[C@@H](CC(C)C)C(=O)N[C@@H](CC(=O)O)C(=O)N[C@@H](C(=O)N1CCC[C@H]1C(=O)N[C@H](C(=O)N[C@@H](CCCCN)C(=O)N[C@@H](CC(C)C)C(=O)N[C@@H](CCCCNC(=O)CC[C@H](NC(=O)CCCCCCCCCCCCCCC(=O)O)C(=O)O)C(=O)N[C@@H](CCCCN)C(=O)N[C@H](C(=O)N[C@@H](CC(C)C)C(=O)N[C@@H](CC(C)C)C(=O)N[C@@H](CCC(=O)O)C(=O)N[C@@H](CCC(N)=O)C(=O)N[C@@H](CCC(=O)O)C(=O)N[C@@H](CCCCN)C(=O)N[C@@H](CCC(N)=O)C(=O)N[C@@H](CCCCN)C(=O)N[C@@H](C)C(=O)N[C@@H](CCC(N)=O)C(=O)N[C@@H](CCCNC(=N)N)C(=O)N[C@@H](CCC(=O)O)C(=O)N[C@@H](CCC(N)=O)C(=O)N[C@@H](C)C(=O)N[C@@H](CCC(=O)O)C(=O)N[C@H](C(=O)N[C@@H](CC(N)=O)C(=O)NC1(C(=O)N[C@@H](CCC(N)=O)C(=O)N[C@H](C(=O)N[C@@H](CC(C)C)C(=O)N[C@@H](C)C(=O)N[C@@H](CCC(N)=O)C(=O)N[C@H](C(N)=O)C(C)C)[C@@H](C)CC)CCNCC1)[C@@H](C)O)[C@@H](C)CC)[C@@H](C)CC)C(C)C)C(C)C
B5: SEQ ID NO 155 (peptide)
peptide: [NMeI]VLSLD[dV]PIKLK([γGlu-C16 diacid])KILLEQEKQK[Aib]QREQAETN[Api]QILAQV-NH2
modifications: N-terminus assumed
SMILES: CC[C@H](C)[C@H](NC)C(=O)N[C@H](C(=O)N[C@@H](CC(C)C)C(=O)N[C@@H](CO)C(=O)N[C@@H](CC(C)C)C(=O)N[C@@H](CC(=O)O)C(=O)N[C@@H](C(=O)N1CCC[C@H]1C(=O)N[C@H](C(=O)N[C@@H](CCCCN)C(=O)N[C@@H](CC(C)C)C(=O)N[C@@H](CCCCNC(=O)CC[C@H](NC(=O)CCCCCCCCCCCCCCC(=O)O)C(=O)O)C(=O)N[C@@H](CCCCN)C(=O)N[C@H](C(=O)N[C@@H](CC(C)C)C(=O)N[C@@H](CC(C)C)C(=O)N[C@@H](CCC(=O)O)C(=O)N[C@@H](CCC(N)=O)C(=O)N[C@@H](CCC(=O)O)C(=O)N[C@@H](CCCCN)C(=O)N[C@@H](CCC(N)=O)C(=O)N[C@@H](CCCCN)C(=O)NC(C)(C)C(=O)N[C@@H](CCC(N)=O)C(=O)N[C@@H](CCCNC(=N)N)C(=O)N[C@@H](CCC(=O)O)C(=O)N[C@@H](CCC(N)=O)C(=O)N[C@@H](C)C(=O)N[C@@H](CCC(=O)O)C(=O)N[C@H](C(=O)N[C@@H](CC(N)=O)C(=O)NC1(C(=O)N[C@@H](CCC(N)=O)C(=O)N[C@H](C(=O)N[C@@H](CC(C)C)C(=O)N[C@@H](C)C(=O)N[C@@H](CCC(N)=O)C(=O)N[C@H](C(N)=O)C(C)C)[C@@H](C)CC)CCNCC1)[C@@H](C)O)[C@@H](C)CC)[C@@H](C)CC)C(C)C)C(C)C
B6: SEQ ID NO 153 (peptide)
peptide: Ac-IVLSLD[dV]PIKLK([γGlu-C16 diacid])KILLEQEKQK[Aib]QREQAETN[Api]QILAQV-NH2
SMILES: CC[C@H](C)[C@H](NC(C)=O)C(=O)N[C@H](C(=O)N[C@@H](CC(C)C)C(=O)N[C@@H](CO)C(=O)N[C@@H](CC(C)C)C(=O)N[C@@H](CC(=O)O)C(=O)N[C@@H](C(=O)N1CCC[C@H]1C(=O)N[C@H](C(=O)N[C@@H](CCCCN)C(=O)N[C@@H](CC(C)C)C(=O)N[C@@H](CCCCNC(=O)CC[C@H](NC(=O)CCCCCCCCCCCCCCC(=O)O)C(=O)O)C(=O)N[C@@H](CCCCN)C(=O)N[C@H](C(=O)N[C@@H](CC(C)C)C(=O)N[C@@H](CC(C)C)C(=O)N[C@@H](CCC(=O)O)C(=O)N[C@@H](CCC(N)=O)C(=O)N[C@@H](CCC(=O)O)C(=O)N[C@@H](CCCCN)C(=O)N[C@@H](CCC(N)=O)C(=O)N[C@@H](CCCCN)C(=O)NC(C)(C)C(=O)N[C@@H](CCC(N)=O)C(=O)N[C@@H](CCCNC(=N)N)C(=O)N[C@@H](CCC(=O)O)C(=O)N[C@@H](CCC(N)=O)C(=O)N[C@@H](C)C(=O)N[C@@H](CCC(=O)O)C(=O)N[C@H](C(=O)N[C@@H](CC(N)=O)C(=O)NC1(C(=O)N[C@@H](CCC(N)=O)C(=O)N[C@H](C(=O)N[C@@H](CC(C)C)C(=O)N[C@@H](C)C(=O)N[C@@H](CCC(N)=O)C(=O)N[C@H](C(N)=O)C(C)C)[C@@H](C)CC)CCNCC1)[C@@H](C)O)[C@@H](C)CC)[C@@H](C)CC)C(C)C)C(C)C

Target: T1, CRF1R receptor
Test: cell-based or functional assay

Emax (% I)	EC50	Binder
30%		B1
8%		B2
4%	> 250 nM	VLSLD[dV]PIKLK([γGlu-C16 diacid])QILLKQERQKKQREQAEKNKQILEQV-NH2 [SEQ ID NO 4]
25%		B3
24%		B4
26%		B5
22%		B6

Target: human corticotropin-releasing factor 2a (CRF2a receptor) (human), Q13324
Test: cell-based or functional assay

human corticotropin-releasing factor 2a (CRF2a receptor) (human), Q13324, sequence (Q13324 20-411): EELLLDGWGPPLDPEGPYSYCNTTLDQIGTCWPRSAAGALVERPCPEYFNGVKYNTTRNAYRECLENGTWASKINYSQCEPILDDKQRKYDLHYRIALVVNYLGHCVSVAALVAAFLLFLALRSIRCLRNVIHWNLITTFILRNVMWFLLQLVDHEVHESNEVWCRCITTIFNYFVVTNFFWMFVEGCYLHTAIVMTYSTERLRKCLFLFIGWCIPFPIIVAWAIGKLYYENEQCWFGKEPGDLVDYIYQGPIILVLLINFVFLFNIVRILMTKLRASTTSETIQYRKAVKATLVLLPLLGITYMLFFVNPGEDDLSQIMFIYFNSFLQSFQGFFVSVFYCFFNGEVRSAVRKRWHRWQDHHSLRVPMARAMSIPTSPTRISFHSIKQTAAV

EC50 [nM] (cAMP)	Binder
0.32 nM	B1
0.29 nM	B2
0.44 nM	VLSLD[dV]PIKLK([γGlu-C16 diacid])QILLKQERQKKQREQAEKNKQILEQV-NH2 [SEQ ID NO 4]
0.51 nM	B3
0.52 nM	B4
0.51 nM	B5
0.41 nM	B6
